T1: PabA, glutaminase subunit of aminodeoxychorismate synthase (ADCS) from Escherichia coli, wild type (Escherichia coli, UniProt P00903 1-187)
T1 sequence: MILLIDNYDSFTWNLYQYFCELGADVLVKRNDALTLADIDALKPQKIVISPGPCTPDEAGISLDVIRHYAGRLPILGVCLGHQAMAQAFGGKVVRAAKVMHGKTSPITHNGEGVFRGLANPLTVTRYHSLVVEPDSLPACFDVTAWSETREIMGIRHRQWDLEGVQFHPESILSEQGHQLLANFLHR

T2: PabB, synthase subunit of ADCS from Escherichia coli, as crystallized (His tag cleaved) (Escherichia coli, UniProt P05041 1-453)
T2 construct: PabB, synthase subunit of ADCS, E. coli; the gene was cloned into pET28a; Cho and Mg2+ in 8RP0; also called ADCS synthase subunit; source: E. coli BL21-Gold (DE3), purified (Ni-IMAC, TEV cleavage, reverse IMAC, preparative gel filtration); not shown: His6, N-terminal, cleaved
T2 sequence: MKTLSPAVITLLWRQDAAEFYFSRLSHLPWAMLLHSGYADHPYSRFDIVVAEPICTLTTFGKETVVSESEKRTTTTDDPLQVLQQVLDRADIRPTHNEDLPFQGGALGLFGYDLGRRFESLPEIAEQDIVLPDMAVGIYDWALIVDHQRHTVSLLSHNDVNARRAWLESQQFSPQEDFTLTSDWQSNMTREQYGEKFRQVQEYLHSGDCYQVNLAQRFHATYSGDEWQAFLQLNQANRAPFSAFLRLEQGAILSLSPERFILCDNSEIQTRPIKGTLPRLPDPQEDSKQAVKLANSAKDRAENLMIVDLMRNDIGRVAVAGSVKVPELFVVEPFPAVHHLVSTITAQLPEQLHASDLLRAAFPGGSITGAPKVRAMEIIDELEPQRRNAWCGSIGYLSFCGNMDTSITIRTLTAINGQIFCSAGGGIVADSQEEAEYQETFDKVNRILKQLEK

B1: PabB, synthase subunit of aminodeoxychorismate synthase (ADCS) from Escherichia coli, wild type (enzyme)
chain: T2 sequence
B2: PabA variant aH128A (enzyme, Escherichia coli)
chain: T1 sequence with H128A
notes: PabA, glutaminase subunit of ADCS, E. coli; construct as m1 with one exchange; Made by QuikChange mutagenesis from the construct of m1; source: E. coli BL21-Gold (DE3), purified (Ni-IMAC, preparative gel filtration)
B3: PabB variant bE119R (enzyme, Escherichia coli)
chain: T2 sequence with E119R
B4: PabA variant aS171A (enzyme, Escherichia coli)
chain: T1 sequence with S171A
notes: as for B2
B5: PabA variant aP53A (enzyme, Escherichia coli)
chain: T1 sequence with P53A
notes: as for B2
B6: PabB variant bR311A (enzyme, Escherichia coli)
chain: T2 sequence with R311A
B7: PabA variant aC54G (enzyme, Escherichia coli)
chain: T1 sequence with C54G
notes: as for B2
B8: PabB variant bD308A (enzyme, Escherichia coli)
chain: T2 sequence with D308A
B9: PabB variant bD308N (enzyme, Escherichia coli)
chain: T2 sequence with D308N
B10: PabA variant aC54A (enzyme, Escherichia coli)
chain: T1 sequence with C54A
notes: as for B2
B11: PabA double variant [Y127A, S171A] (enzyme, Escherichia coli)
chain: T1 sequence with Y127A, S171A
notes: PabA, glutaminase subunit of ADCS, E. coli; construct as m1 with two exchanges; Made by mutagenesis from the construct of m1; source: E. coli BL21-Gold (DE3), purified (Ni-IMAC, preparative gel filtration)
B12: PabA variant aR30E (enzyme, Escherichia coli)
chain: T1 sequence with R30E
notes: as for B2
B13: PabB variant bD308E (enzyme, Escherichia coli)
chain: T2 sequence with D308E
B14: PabA, glutaminase subunit of ADCS from Escherichia coli, as crystallized, with glutamyl thioester (Gln-TE) on aC79 (enzyme)
chain: T1 sequence
modifications: glutamyl thioester (Gln-TE) adduct covalently bound to the catalytic C79
notes: PabA, class I glutaminase subunit of ADCS, E. coli; the gene was cloned into pET28a; Same construct as m20; the adduct forms in one of the two heterodimers of the crystals grown with Gln; also called PabA with Gln-TE; source: E. coli BL21-Gold (DE3), purified (Ni-IMAC, TEV cleavage, reverse IMAC, preparative gel filtration); crystallized with 0.2 M L-Gln; not shown: His6, N-terminal, cleaved

The experiment “PabA variant aR30E” concerns the target B12. The experiment can be described thus: cell-based or functional assay.
The target of experiment [1] is T1, PabA, glutaminase subunit of …. The experiment can be described thus: cell-based or functional assay.
Experiment [2] addresses B1. The experiment can be described thus: ITC; 250 μM PabB titrated into 25 μM PabA in the cell; 25 °C; 50 mM Tris/HCl pH 7.5, 50 mM KCl, 5 mM MgCl2; without Cho and Gln; one set of sites. The conditions noted are these: both partners purified.
In experiment [3] the target is B1. The experiment can be described thus: SEC; analytical SEC with 5 mM L-Gln in the buffer; PabA and PabB mixed equimolar, 50 μM each; Superdex 200 increase 10/300 GL; 50 mM Tris/HCl pH 7.5, 50 mM KCl, 5 mM MgCl2, 2 mM DTT; 25 °C; without Cho. The conditions noted are these: both partners purified. For orientation: SEC sorts molecules by how far they enter the pores of the column.

The target in experiment [4] is T2, PabB, synthase subunit of ADCS from …. The experiment can be described thus: crystal structure; ADCS heterodimer with Gln-TE on aC79; reservoir supplemented with 0.2 M L-Gln, with or without 14.4 mM Cho added afterwards; 0.1 M MES pH 6.5, 1.5 M magnesium sulfate, 18 °C. The conditions noted are these: both partners purified.

The values below come from article PMC7617670, “Activity Regulation of a Glutamine Amidotransferase Bienzyme Complex by Substrate-Induced Subunit Interface Expansion” (ACS catalysis, 2025).

Where a chain is given by its changes, count along the chain named. Names may count otherwise.

B1: the “glutaminase catalytic efficiency kcat/KM^Gln (coupled GDH assay, 200 μM Cho, PabB in fourfold excess)” value with PabA variant aR30E turned out to be 79 M⁻¹ s⁻¹; in experiment [1], 1090 M⁻¹ s⁻¹.

For B2, binding in experiment [2] was characterised by a dissociation constant (Kd) of 370 nM.

Regarding B3, the “glutaminase catalytic efficiency kcat/KM^Gln (coupled GDH assay, 200 μM Cho, PabB in fourfold excess)” value in experiment [1] was 60 M⁻¹ s⁻¹.

Consider B4, for which, in experiment [2], the affinity, expressed as Kd, was 920 nM.

As for B5, the Kd (usually a measure of binding affinity in units of concentration) in experiment [2] was 180 nM.

Turning to B6, the “glutaminase catalytic efficiency kcat/KM^Gln (coupled GDH assay, 200 μM Cho, PabB in fourfold excess)” value in experiment [1] is 100 M⁻¹ s⁻¹.

Molecule B7 displayed a Kd in experiment [2] of 60 nM.

For B8, in experiment [1], the “glutaminase catalytic efficiency kcat/KM^Gln (coupled GDH assay, 200 μM Cho, PabB in fourfold excess)” value was determined as 13 M⁻¹ s⁻¹.

For B9, in experiment [1], the “glutaminase catalytic efficiency kcat/KM^Gln (coupled GDH assay, 200 μM Cho, PabB in fourfold excess)” value was determined as 36 M⁻¹ s⁻¹.

Regarding B10, in experiment [2], binding was characterised by a dissociation constant (Kd) of 180 nM.

Regarding B11, in experiment [3], the binding result is listed as “binds”.

In experiment [2], B12 gave a Kd of 380 nM.

As to B13, the “glutaminase catalytic efficiency kcat/KM^Gln (coupled GDH assay, 200 μM Cho, PabB in fourfold excess)” value in experiment [1] is 1540 M⁻¹ s⁻¹.

Regarding B14, the binding result in experiment [4] is “binds”.
